Test results reported in the RNAGym collection of RNA variant scans (doi:10.1073/pnas.2313332121).

B1: TPR t1 (parent)
chain: GACCAAUCUGCCCUCAGAGCUCGAGAACAUCUUCGGAUGCAGAGGAGGCAGGCUUCGGUGGCGCGAUAGCGCCAACGUCCUCAACCUCCAAUGCAUCCCACCACAUGAUGAUGCCUGAAGAGCCUUGGUUUUUUG

Variants of: B1
Experiment: polymerase ribozyme fitness, log enrichment relative to wild type (log ratio); higher = more active; in vitro selection for triplet polymerase activity
In short: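 Each subunit of a heterodimeric triplet polymerase ribozyme was mutagenized into a library by PCR, transcribed, and subjected to one round of in vitro selection, run in triplicate. Libraries were annealed with a biotinylated primer, the partner subunit and triplets, incubated frozen at −7 °C, and extended constructs were gel-excised, captured on streptavidin beads and recovered by RT-PCR. Input and output libraries were sequenced on Illumina, keeping genotypes with ≥10 input reads and ≥1 read per output. Fitness is log base 2 of genotype enrichment divided by wild-type enrichment, from inverse-variance-weighted replicate averages.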

Row | Variant | polymerase ribozyme fitness (log ratio)
1 | G39U C76U C79G | -1.98
2 | G39U G44C C72U | -1.9
3 | G39A U96C | -0.886
4 | G39U C49A G71U G127A | -2.56
5 | G39A C56A G120U | -0.286
6 | G39A C115A | -0.711
7 | C40A A43C | -3.2
8 | G39U C64U A84C G122A C124A | 0.97
9 | G39U U54G C73G | -4.41
10 | G39U C40G | -3.47
11 | G39A A43U | -1.78
12 | C40A | -1.28
13 | U38G G52U G135C | -3.58
14 | C40A A46G U55A C99U G120A | -4.32
15 | G39U G65A | -6.81
16 | G39U A43G | -1.75
17 | G39U G57A C80A | -2.91
18 | G39C G65U | -6.02
19 | G39A C72U C99U G120A U126C | -3.09
20 | G39C A50C C56G G71A G77A A90U U96A | -4.32
21 | U38G C49A G77U C85G C115A | -3.84

Row | Variant | polymerase ribozyme fitness (log ratio)
22 | G39U G120U | -0.816
23 | U38G G60U | -0.261
24 | G39C G135U | -0.712
25 | G39C U55A C56A U112C | -0.17
26 | U38G G42C A43U G71C C82U C115U | -4.36
27 | U38G C40U | -1.03
28 | C40A A43G C56G G135U | -4.41
29 | U38G C80A C88U | -4.45
30 | G39U G47U | -2.97
31 | G39A C40A | -3.25
32 | C40A C73U U78A | -0.967
33 | G39A G60A C86U U116A | -3.99
34 | G39U C115U U131A | -2.02
35 | C40A A111C | -1.49
36 | U38G G52C U55G A74U | -2.31
37 | G39U C62A | -2.16
38 | U38G A105C U112A G122C | -5.07
39 | G39A A90G | 0.17
40 | G39A C62A C89G C101U | -5.16
41 | U38G C73G A95C A100C U106A G127A | -2.6
42 | U38G C82G A95G | -2.72

Row | Variant | polymerase ribozyme fitness (log ratio)
43 | G39U G52A U55C C56A C80U | -1.08
44 | G39U G107U G117U | -6.23
45 | G39A U81A C88U | -0.679
46 | G39U G117C | -4.79
47 | G39U G45U C72A | -2.22
48 | G39A A68G C115G U130A | -6.03
49 | U38G A121C | 1.24
50 | G39A C97A G120C | -6.66
51 | U38G G42U G61U C73U C115U | -3.73
52 | U38G G47U | -3.26
53 | G39C G93A | -2.3
54 | U38G G39A C72A U81A U112A | -2.71
55 | U38G C56U C72A U131C | -2.05
56 | G39A C70G U112G | -4.63
57 | G39U C97A | -5.98
58 | G39C C72U U129G | -2.2
59 | G39U G61A C72G A103U | -5.55
60 | G39U A103C C114U A119U G120A U130A | -4.34
61 | U38G G47U G120A U130C | -1.92
62 | C40A C85G C88U U129G | -3.87
63 | G39U G60A | 0.0157

Row | Variant | polymerase ribozyme fitness (log ratio)
64 | G39U G60U | -0.635
65 | G39C U55G A119U | -0.691
66 | G39U A66U A119G | -0.493
67 | G39A C56A | -0.909
68 | U38G U106A | -1.09
69 | G39C A66U A75G C88G C123U | -3.46
70 | G39U C49G A118U | -0.724
71 | G39A A118G A121U | 1.46
72 | G39A G69A A121U G128U | -3.24
73 | G39A C53U G61C A84U G127C | -2.2
74 | G39A G58A | -1.7
75 | G39A G57A G60C C101A G113C | -6.12
76 | G39A C64U C98G A103C A111G | -7.64
77 | U38G G42A C79U | -2.56
78 | G39C C62A | -0.902
79 | G39A G57U G71U U78G C123A | -0.79
80 | G39U G113U | -3.59
81 | G39U G113C | -2.84
82 | G39U C88U C94U U106G A121C | -0.0673
83 | G39C G69A G127U | -3.35
